The series deals with T1, His-ChvI(D52E) D52E (Agrobacterium tumefaciens C58), ORF:0a874367.
T1 sequence: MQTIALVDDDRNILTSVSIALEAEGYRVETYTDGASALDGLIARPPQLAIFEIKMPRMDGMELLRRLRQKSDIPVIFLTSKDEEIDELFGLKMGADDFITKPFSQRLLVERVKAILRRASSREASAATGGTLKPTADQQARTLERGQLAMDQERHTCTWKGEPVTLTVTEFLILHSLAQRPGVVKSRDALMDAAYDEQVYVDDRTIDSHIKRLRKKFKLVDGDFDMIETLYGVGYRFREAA
Put plainly: EMSA.

In the case of “TCCGCATCCATGGGAATAGCAGTCTTTCCCCACCTTGCCTCCACGCTGGAGCAGCTTTTCGACAGGGCAGACTATGCCCTCTACCACGCCAAGAAAACCCGGCGTGGCGATGCCGTTCTGTTCGATGCGGAACACGAAAAGCAGATCAATATCGAAGCCCGCATTGAGCATCTGCTCAAGCAGAGCGATCTGAAAAACGAACTTTCGGTGATGTTTCAGCCGATCGTGGATATACGCGACGGAAGGATC (double strand) [atu4353 coding region control fragment]”, the binding result is reported as “no binding”.

As for “TCGAGGAGTAGTCTATCCCCAGAAAATAGTAATGGATTTTTTGTAGTTACTTCCCTTACGTGAGGCTATTAATCAGACAGACTTATTCAAAATGTGTCTAAATTGTGGCGTCTACTCCCTAATCTAATCTGATAAAAAATAAACTTCGGGGTGGACAACCCGGTTTCATCATCATAGTTATTCCACGTCACGTTGTGGAATGAACCCGGGCAGGAGGCTCATTGCATGTCGGTACCCC (double strand) [imp-hcp intergenic region (T6SS regulatory region), 230 bp]”, the binding entry is “binds”.

(Values after article PMC3460628.)
